The supplement of paper PMC9942255

System: Bacillus subtilis DB104 (SP-AmyQ fusion secretion)
Assay: AmyQ secretion efficiency, weighted average sort bin (1 = best secretion, 10 = worst) (bin number (weighted average, 1-10)); higher = lower secretion efficiency
How it was run: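 Secretion score gives the read-frequency-weighted average bin number, normalised to beads per bin, with low-abundance sequences left out. A B. subtilis DB104 library expressing mature AmyQ fused to designed signal peptides, integrated at amyE, was encapsulated with fluorescein-starch at about 0.3 cells per ~65 nL alginate bead. Beads were grown about 13 h at room temperature, stained with nile red, and the occupied ones were sorted by large-particle flow cytometry into 10 equally populated bins by green/red fluorescence ratio before the amplicons from each bin were Illumina-sequenced.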

Question: Which AmyQ secretion efficiency does the source give for MRNLTKFLLLLAFLCMAAQMVFVTHASAEES here?
Answer: 3.58

Question: With MKTLRTLCVLMILSGVIFFGLKIDRKDI as the sequence, how does the AmyQ secretion efficiency read?
Answer: 5.46

Question: How did the AmyQ secretion efficiency turn out when MKKWMAGLFLAAAVLLCLMVPQQQQGASS was run?
Answer: 6.69

Question: MNKFLKSNFRFLLAAALGISLLASSNFCKASND was tested. Which AmyQ secretion efficiency did it give?
Answer: 1.73

Question: With MRKKRVITCVMAASLTLGSLLPAGYCSAKED as the sequence, how does the AmyQ secretion efficiency read?
Answer: 3.36

Question: How did the AmyQ secretion efficiency turn out when MKSCKQLIVCSLAAILLLDPQPSFAADS was run?
Answer: 4.16

Question: MKWMCSICCAAVLLAGGTAQAEAV was tested. Which AmyQ secretion efficiency did it give?
Answer: 2.47

Question: MHQIRAAGAVCLAVVLIAGCRFNEDQHQAEGENT was tested. Which AmyQ secretion efficiency did it give?
Answer: 6.4

Question: Which AmyQ secretion efficiency does the source give for MKLRKVLTGSVLSLGLLVSASPAFATRK here?
Answer: 2.53

Question: How did the AmyQ secretion efficiency turn out when MMIMQCVICLSLLVFGTTAAHAEET was run?
Answer: 2.38

Question: MKRKSMSFSLSNLLSSLAISALSLGLLVSAPTASFAAES was tested. Which AmyQ secretion efficiency did it give?
Answer: 2.5

Question: MNSMTIWTIILGALLVCCIAVAYTLTKSQAGASSS was tested. Which AmyQ secretion efficiency did it give?
Answer: 6.92

Question: For MKKVLMAFIICLSLILSVLAAPPSGVKAESV, which AmyQ secretion efficiency is on record?
Answer: 1.85

Question: MRFTKVVGFLSVLGLAAEDEEEEAQAEKA was tested. Which AmyQ secretion efficiency did it give?
Answer: 7.84

Question: Which AmyQ secretion efficiency does the source give for MKKRFSLIMMTGLLFGLTSPAFAASN here?
Answer: 2.36

Question: For MAIIIAIIAAVIVIAALITFNVRNLSPG, which AmyQ secretion efficiency is on record?
Answer: 7.04

Question: MKKTIMSFVAVAALSTTAFGAHASAATI was tested. Which AmyQ secretion efficiency did it give?
Answer: 2.11

Question: With MKRFSTAYLLLGILCSAAVFLIKRPSRALGAEV as the sequence, how does the AmyQ secretion efficiency read?
Answer: 6.46

Question: Which AmyQ secretion efficiency does the source give for MRPVFPLKKRRVLFLSCFFGARQTEASASKR here?
Answer: 7.34

Question: MKNMSCKLVVSVTLFFSFLTIGPLAHCQNS was tested. Which AmyQ secretion efficiency did it give?
Answer: 1.91

Question: How did the AmyQ secretion efficiency turn out when MKVCQKSIVRSTTRQRIGTFVISVPFMANAQSD was run?
Answer: 7.4

Question: Which AmyQ secretion efficiency does the source give for MKRMIVRMTKRKRRRCLAFSSFSASARAASE here?
Answer: 8.6

Question: With MSSSVKIAGVLTVAAAAMTAKMYATAKGN as the sequence, how does the AmyQ secretion efficiency read?
Answer: 4.6

Question: MPYLKRVLLLLVTGLFMSLFAVTATMSAQTG was tested. Which AmyQ secretion efficiency did it give?
Answer: 1.29

Question: With MNKFLKSNFRFLLAAALGISLLGESNPIKASND as the sequence, how does the AmyQ secretion efficiency read?
Answer: 1.52

Question: MKKIWIGMLAAAVLLLMVPKVSLAEDD was tested. Which AmyQ secretion efficiency did it give?
Answer: 4.09

Question: MKKAFLVFLSVVLVTTVFLVKQQESVLQAKQL was tested. Which AmyQ secretion efficiency did it give?
Answer: 4.04

Question: Which AmyQ secretion efficiency does the source give for MKRLCLWFTVFSLFLVLLPGKALGKKR here?
Answer: 2.36

Question: MKLKKRVSMFLVALTMCGGLFVTPAKAVTD was tested. Which AmyQ secretion efficiency did it give?
Answer: 3.07

Question: How did the AmyQ secretion efficiency turn out when MKLRKVLTGSVLSLGLLIVSASPAFATSP was run?
Answer: 2.48

Question: MRPLILSAVLFLSCFFGARQTEASASKR was tested. Which AmyQ secretion efficiency did it give?
Answer: 3.63

Question: For MKKKLAAGLTASAIVGTTLVVTPWEAATI, which AmyQ secretion efficiency is on record?
Answer: 6.58

Question: MLKKIALTLCPAIVGSLLFFTVILITAPASAHVS was tested. Which AmyQ secretion efficiency did it give?
Answer: 3.87

Question: Which AmyQ secretion efficiency does the source give for MRKKLKWLSFLLGFIILLFLFDEEEDDFSNNDS here?
Answer: 5.38

Question: How did the AmyQ secretion efficiency turn out when MKKTIMSFVAVAALSTTAFFAIASAKEI was run?
Answer: 6.16

Question: Which AmyQ secretion efficiency does the source give for MLKKKWMVGLLAGCLAAGGFSYNAFSTEN here?
Answer: 6.06

Question: For MFNRLFRVCFLAALIMAFTLPNSVYAKKR, which AmyQ secretion efficiency is on record?
Answer: 3.37

Question: How did the AmyQ secretion efficiency turn out when MFKKHTISLLIIFLLASAVLAKPIECHTV was run?
Answer: 5.04

Question: With MIVLSTIITFNFIILLFISIIVFLSVIQPQPS as the sequence, how does the AmyQ secretion efficiency read?
Answer: 5.66

Question: Which AmyQ secretion efficiency does the source give for MRKYTVIASILLSFLSVLSGGHHEWKAFPV here?
Answer: 4.79

Question: For MKKWLIIAVSLAIAIVLFMYTKGEAKTAGM, which AmyQ secretion efficiency is on record?
Answer: 4.28

Question: MLKKKWMVGLLAGCLAAGGFSYNFFATEN was tested. Which AmyQ secretion efficiency did it give?
Answer: 6.27

Question: MKSKGSIMACLILFSFTITTFINTGTISAFSN was tested. Which AmyQ secretion efficiency did it give?
Answer: 4.33

Question: How did the AmyQ secretion efficiency turn out when MRFTKVVGFLSVLGLAAVFPLTAQAEED was run?
Answer: 1.95

Question: MKIRKILLSSALSFGMLISAVPALARKR was tested. Which AmyQ secretion efficiency did it give?
Answer: 5.61

Question: With MKKRLIAPMLLSAASLAFMSGSAQAAAY as the sequence, how does the AmyQ secretion efficiency read?
Answer: 3.31

Question: MRKRKKRLSVAVAASFMSLSISLPGVQAAEG was tested. Which AmyQ secretion efficiency did it give?
Answer: 2.16
